Data on 94 variants can be found in the supplement of paper PMC10567573.

B1: SMARCE1 (parent)
chain: YHNSPAYLAYINAKSRAEAALEEE
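Note: lentivirally expressed fusions sorted by FACS into six bins by GFP to DsRed ratio, PSI derived from sequencing read proportions per bin multiplied by bin number.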

The variants in the data set derive from B1. The experiment in a line: protein stability index of a GFP-peptide fusion (GPS, HEK-293T) (PSI 1-6); higher = more stable. Particulars: c terminus: a fixed tail appended.
As for YHNSPAYLAYINNKSRAEAALEEE, the protein stability index worked out at 1.9.

Regarding YHNSPAYLAYKNAKSRAEAALEEE, the protein stability index was 2.59.

With YHNSPAYLAYENAKSRAEAALEEE, the protein stability index came to 2.64.

Take YHNSPAYLAYYNAKSRAEAALEEE: the protein stability index was found to be 3.27.

Regarding YHNSPAYLAYQNAKSRAEAALEEE, the protein stability index was determined as 2.85.

Take YHNSPAYLAYLNAKSRAEAALEEE: the protein stability index turned out to be 2.24.

In the case of YHNSPAYLAYFNAKSRAEAALEEE, the protein stability index was 2.67.

On to YHNSPAYLAYCNAKSRAEAALEEE, for which the protein stability index stood at 1.66.

Take YHNSPAYLAYPNAKSRAEAALEEE: the protein stability index came out at 3.06.

Take YHNSPAYLAYRNAKSRAEAALEEE: the protein stability index is 2.29.

YHNSPAYLAYSNAKSRAEAALEEE: the protein stability index was found to be 2.99.

Consider YHNSPAYLAYNNAKSRAEAALEEE, for which the protein stability index amounted to 2.59.

With YHNSPAYLAYVNAKSRAEAALEEE, the protein stability index was 2.33.

For the variant YHNSPAYLAYMNAKSRAEAALEEE, the protein stability index was 2.35.

Take YHNSPAYLAYGNAKSRAEAALEEE: the protein stability index amounted to 1.87.

For the variant YHNSPAYLAYHNAKSRAEAALEEE, the protein stability index stood at 2.46.

In the case of YHNSPAYLAYTNAKSRAEAALEEE, the protein stability index turned out to be 2.99.

YHNSPAYLAYDNAKSRAEAALEEE: the protein stability index was 3.19.

Turning to YHNSPAYLAYWNAKSRAEAALEEE, the protein stability index was 2.35.

As to YHNSPAYLAYINASSRAEAALEEE, the protein stability index was 1.51.

Regarding YHNSPAYLAYINAASRAEAALEEE, the protein stability index is 1.79.

Consider YHNSPAYLAYINAHSRAEAALEEE, for which the protein stability index was 2.16.

For the variant YHNSPAYLAYINAESRAEAALEEE, the protein stability index was 2.03.

Consider YHNSPAYLAYINAYSRAEAALEEE, for which the protein stability index amounted to 2.63.

As to YHNSPAYLAYINAQSRAEAALEEE, the protein stability index is 2.55.

As to YHNSPAYLAYINALSRAEAALEEE, the protein stability index came to 1.9.

Regarding YHNSPAYLAYINADSRAEAALEEE, the protein stability index worked out at 1.16.

Turning to YHNSPAYLAYINAPSRAEAALEEE, the protein stability index was 1.95.

Take YHNSPAYLAYINAFSRAEAALEEE: the protein stability index is 2.35.

Consider YHNSPAYLAYINAISRAEAALEEE, for which the protein stability index is 2.81.

As for YHNSPAYLAYINANSRAEAALEEE, the protein stability index worked out at 2.57.

On to YHNSPAYLAYINATSRAEAALEEE, for which the protein stability index turned out to be 2.86.

For the variant YHNSPAYLAYINAGSRAEAALEEE, the protein stability index was determined as 2.89.

In the case of YHNSPAYLAYINACSRAEAALEEE, the protein stability index worked out at 2.14.

YHNSPAYLAYINAWSRAEAALEEE: the protein stability index stood at 1.62.

YHNSPAYLAYINAVSRAEAALEEE: the protein stability index is 2.15.

Consider YHNSPAYLAYINAMSRAEAALEEE, for which the protein stability index turned out to be 1.57.

As for YHNSPAYLAYINARSRAEAALEEE, the protein stability index was 2.51.

Turning to YHNSPAYLRYINAKSRAEAALEEE, the protein stability index was determined as 1.96.

As to YHNSPAYLYYINAKSRAEAALEEE, the protein stability index amounted to 1.74.

For YHNSPAYLWYINAKSRAEAALEEE, the protein stability index was 2.21.

With YHNSPAYLLYINAKSRAEAALEEE, the protein stability index worked out at 1.5.

On to YHNSPAYLHYINAKSRAEAALEEE, for which the protein stability index was determined as 2.51.

In the case of YHNSPAYLQYINAKSRAEAALEEE, the protein stability index came out at 1.84.

YHNSPAYLTYINAKSRAEAALEEE: the protein stability index came to 2.24.

In the case of YHNSPAYLIYINAKSRAEAALEEE, the protein stability index came to 2.81.

With YHNSPAYLVYINAKSRAEAALEEE, the protein stability index worked out at 2.29.

As to YHNSPAYLSYINAKSRAEAALEEE, the protein stability index was determined as 2.96.

Regarding YHNSPAYLNYINAKSRAEAALEEE, the protein stability index turned out to be 2.39.

On to YHNSPAYLPYINAKSRAEAALEEE, for which the protein stability index was found to be 3.18.

Regarding YHNSPAYLMYINAKSRAEAALEEE, the protein stability index worked out at 1.38.

Turning to YHNSPAYLKYINAKSRAEAALEEE, the protein stability index is 1.68.

Turning to YHNSPAYLAYINAKSRAEGALEEE, the protein stability index was 2.56.

Turning to YHNSPAYLAYINAKSRAEFALEEE, the protein stability index came to 2.31.

With YHNSPAYLAYINAKSRAECALEEE, the protein stability index worked out at 2.84.

With YHNSPAYLAYINAKSRAEDALEEE, the protein stability index came to 2.33.

As to YHNSPAYLAYINAKSRAEEALEEE, the protein stability index is 2.69.

In the case of YHNSPAYLAYIKAKSRAEAALEEE, the protein stability index turned out to be 2.41.

Take YHNSPAYLAYIGAKSRAEAALEEE: the protein stability index amounted to 1.65.

On to YHNSPAYLAYIYAKSRAEAALEEE, for which the protein stability index turned out to be 2.23.

Consider YHNSPAYLAYIWAKSRAEAALEEE, for which the protein stability index was 2.09.

For the variant YHNSPAYLAYIHAKSRAEAALEEE, the protein stability index stood at 3.13.

On to YHNSPAYLAYIDAKSRAEAALEEE, for which the protein stability index came to 2.26.

YHNSPAYLAYICAKSRAEAALEEE: the protein stability index is 2.02.

YHNSPAYLAYIRAKSRAEAALEEE: the protein stability index was 2.04.

For the variant YHNSPAYLAYIEAKSRAEAALEEE, the protein stability index worked out at 1.93.

As for YHNSPAYLAYISAKSRAEAALEEE, the protein stability index was 1.58.

Take YHNSPAYLAYIAAKSRAEAALEEE: the protein stability index was 1.77.

As for YHNSPAYLAYIFAKSRAEAALEEE, the protein stability index was determined as 2.28.

As to YHNSPAYLAYITAKSRAEAALEEE, the protein stability index is 2.06.

For YHNSPAYLAYIPAKSRAEAALEEE, the protein stability index was determined as 3.69.

Consider YHNSPAYLAYIVAKSRAEAALEEE, for which the protein stability index came to 2.44.

In the case of YHNSPAYLAYIMAKSRAEAALEEE, the protein stability index turned out to be 2.33.

For YHNSPAYLAYIQAKSRAEAALEEE, the protein stability index turned out to be 2.25.

Consider YHNSPAYLAYIIAKSRAEAALEEE, for which the protein stability index came out at 1.64.

With YHNSPAYLAYILAKSRAEAALEEE, the protein stability index came out at 2.1.

Take YHNSPAYLAYINAKSQAEAALEEE: the protein stability index turned out to be 2.17.

As for YHNSPAYLAYINAKSPAEAALEEE, the protein stability index is 2.12.

For YHNSPAYLAYINAKSDAEAALEEE, the protein stability index was 2.4.

On to YHNSPAYLAYINAKSLAEAALEEE, for which the protein stability index is 2.56.

In the case of YHNSPAYLAYINAKSHAEAALEEE, the protein stability index amounted to 2.15.

Take YHNSPAYLAYINAKSEAEAALEEE: the protein stability index was found to be 2.33.

Consider YHNSPAYLAYINAKSAAEAALEEE, for which the protein stability index stood at 2.04.

Turning to YHNSPAYLAYINAKSTAEAALEEE, the protein stability index turned out to be 2.55.

YHNSPAYLAYINAKSCAEAALEEE: the protein stability index came to 2.72.

With YHNSPAYLAYINAKSNAEAALEEE, the protein stability index was 1.35.

As for YHNSPAYLAYINAKSSAEAALEEE, the protein stability index came to 2.43.

Turning to YHNSPAYLAYINAKSYAEAALEEE, the protein stability index came out at 2.82.

Regarding YHNSPAYLAYINAKSKAEAALEEE, the protein stability index amounted to 2.4.

For YHNSPAYLAYINAKSVAEAALEEE, the protein stability index was determined as 2.99.

As for YHNSPAYLAYINAKSFAEAALEEE, the protein stability index was 1.77.

With YHNSPAYLAYINAKSIAEAALEEE, the protein stability index was 2.2.

On to YHNSPAYLAYINAKSGAEAALEEE, for which the protein stability index is 1.74.

On to YHNSPAYLAYINAKSMAEAALEEE, for which the protein stability index was found to be 1.81.
